Laboratory results published in PMC3335088 (PLoS ONE, 2012).

Assays:
Conditions in all cases: partners not purified
[1] = target: T1, MCM6 with 6-His tag in combination with a HA tag (human, UniProt Q14566 1-821); test: pull-down; co-expression in High Five insect cells; lysis in 50-100 mM Tris-HCl pH 8.0, 150 mM NaCl, 5% glycerol, 0.5% Triton X-100; tagged protein recovered on Ni-NTA, anti-FLAG M2, anti-HA or StrepT-actin resin, 1 hr at 4°C; washes with 300 mM NaCl; Coomassie staining and Western blot
T1 construct: MCM6; also called HA-MCM6; 6-His-tagged MCM6; source: High Five insect cells, baculovirus, in lysate
T1 sequence (looked up): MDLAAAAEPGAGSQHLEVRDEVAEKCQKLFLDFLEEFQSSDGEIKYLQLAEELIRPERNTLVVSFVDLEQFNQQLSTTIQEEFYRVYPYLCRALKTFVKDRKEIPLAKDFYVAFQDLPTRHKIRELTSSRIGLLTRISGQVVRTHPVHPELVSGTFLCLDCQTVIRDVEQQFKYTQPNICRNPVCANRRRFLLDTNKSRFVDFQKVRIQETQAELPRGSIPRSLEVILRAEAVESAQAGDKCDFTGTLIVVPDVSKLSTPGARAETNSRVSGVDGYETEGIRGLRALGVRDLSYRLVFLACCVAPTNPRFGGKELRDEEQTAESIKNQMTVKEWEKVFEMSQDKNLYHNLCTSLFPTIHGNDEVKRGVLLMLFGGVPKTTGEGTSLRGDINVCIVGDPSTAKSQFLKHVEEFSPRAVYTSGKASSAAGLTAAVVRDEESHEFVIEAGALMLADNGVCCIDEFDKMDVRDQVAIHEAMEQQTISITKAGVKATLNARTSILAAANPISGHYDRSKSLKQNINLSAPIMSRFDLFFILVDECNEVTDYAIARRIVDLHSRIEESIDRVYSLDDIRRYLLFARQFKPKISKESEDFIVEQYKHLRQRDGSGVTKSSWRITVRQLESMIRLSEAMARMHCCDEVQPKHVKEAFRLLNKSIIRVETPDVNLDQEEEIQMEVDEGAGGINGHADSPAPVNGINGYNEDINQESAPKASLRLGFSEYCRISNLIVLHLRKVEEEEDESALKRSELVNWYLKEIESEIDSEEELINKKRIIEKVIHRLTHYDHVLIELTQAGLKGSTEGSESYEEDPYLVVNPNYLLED

[2] = target: T2, MCM5 with 6-His tag in combination with a triple FLAG tag (UniProt P33992 1-734); test: as above
T2 construct: MCM5; also called FLAG-MCM5; 6-His-tagged MCM5; source: High Five insect cells, baculovirus, in lysate; not shown: His6, N-terminal, kept; triple FLAG, N-terminal, kept
T2 sequence (looked up): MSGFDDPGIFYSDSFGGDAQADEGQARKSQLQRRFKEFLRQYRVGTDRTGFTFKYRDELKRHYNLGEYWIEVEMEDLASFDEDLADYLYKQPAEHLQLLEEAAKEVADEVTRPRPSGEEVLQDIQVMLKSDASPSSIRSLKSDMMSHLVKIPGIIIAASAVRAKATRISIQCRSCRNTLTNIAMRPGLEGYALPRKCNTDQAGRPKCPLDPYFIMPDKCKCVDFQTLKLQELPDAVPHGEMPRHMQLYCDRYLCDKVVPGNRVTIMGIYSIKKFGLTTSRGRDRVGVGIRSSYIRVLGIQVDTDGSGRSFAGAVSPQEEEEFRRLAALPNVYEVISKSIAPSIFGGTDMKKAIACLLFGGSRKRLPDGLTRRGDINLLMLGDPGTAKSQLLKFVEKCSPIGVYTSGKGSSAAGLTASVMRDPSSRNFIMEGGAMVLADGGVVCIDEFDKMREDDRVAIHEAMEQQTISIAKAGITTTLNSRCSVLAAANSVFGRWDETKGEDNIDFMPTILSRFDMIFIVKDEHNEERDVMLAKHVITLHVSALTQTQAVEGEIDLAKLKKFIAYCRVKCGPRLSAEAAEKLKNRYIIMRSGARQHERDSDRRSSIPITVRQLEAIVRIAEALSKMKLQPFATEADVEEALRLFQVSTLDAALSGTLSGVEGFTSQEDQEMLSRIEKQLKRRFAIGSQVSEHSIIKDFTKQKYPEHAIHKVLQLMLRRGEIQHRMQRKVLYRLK

[3] = target: T3, MCM4 with 6-His tag in combination with a StrepII tag (UniProt P33991 1-863); test: as above
T3 construct: MCM4; The methods describe one MCM4 baculovirus with both tags; also called Strep-MCM4; Strep-tagged MCM4; source: High Five insect cells, baculovirus, in lysate
T3 sequence (looked up): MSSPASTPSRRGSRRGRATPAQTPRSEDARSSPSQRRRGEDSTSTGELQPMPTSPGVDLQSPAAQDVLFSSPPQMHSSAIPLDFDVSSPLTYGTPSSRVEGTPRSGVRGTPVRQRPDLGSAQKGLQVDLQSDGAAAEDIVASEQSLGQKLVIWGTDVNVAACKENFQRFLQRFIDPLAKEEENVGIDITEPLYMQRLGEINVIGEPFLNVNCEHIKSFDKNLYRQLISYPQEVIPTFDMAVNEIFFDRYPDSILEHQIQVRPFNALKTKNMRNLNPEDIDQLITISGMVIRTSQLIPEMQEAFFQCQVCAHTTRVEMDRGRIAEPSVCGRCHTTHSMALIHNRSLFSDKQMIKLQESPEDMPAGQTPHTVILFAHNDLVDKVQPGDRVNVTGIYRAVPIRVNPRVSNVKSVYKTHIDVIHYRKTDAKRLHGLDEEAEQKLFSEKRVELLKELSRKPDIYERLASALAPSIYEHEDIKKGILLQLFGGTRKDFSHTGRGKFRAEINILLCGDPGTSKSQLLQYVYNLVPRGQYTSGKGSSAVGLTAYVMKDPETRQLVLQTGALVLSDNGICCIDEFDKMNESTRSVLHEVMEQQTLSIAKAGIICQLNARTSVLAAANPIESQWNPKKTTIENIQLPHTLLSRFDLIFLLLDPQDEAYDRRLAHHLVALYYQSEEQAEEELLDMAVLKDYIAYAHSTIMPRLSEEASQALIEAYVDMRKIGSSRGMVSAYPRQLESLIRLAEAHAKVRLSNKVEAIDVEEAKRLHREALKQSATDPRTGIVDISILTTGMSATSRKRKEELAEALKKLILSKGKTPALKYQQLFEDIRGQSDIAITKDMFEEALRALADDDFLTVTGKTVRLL

untagged MCM3 = target: T4, untagged MCM3 (UniProt P25205 1-808); test: pull-down; co-expression in High Five insect cells; NaCl of the clarified lysate raised from 0.15 M up to 0.75 M, or deoxycholate added to 0.1 or 0.5% (with 150 mM NaCl), before incubation with Strep-T actin, anti-FLAG or nickel resin; Coomassie staining
T4 construct: MCM3, untagged; construct not described in the methods; also called MCM3 (no tag); source: High Five insect cells, baculovirus, in lysate; co-isolated with His-MCM-BP for the gradient
T4 sequence (looked up): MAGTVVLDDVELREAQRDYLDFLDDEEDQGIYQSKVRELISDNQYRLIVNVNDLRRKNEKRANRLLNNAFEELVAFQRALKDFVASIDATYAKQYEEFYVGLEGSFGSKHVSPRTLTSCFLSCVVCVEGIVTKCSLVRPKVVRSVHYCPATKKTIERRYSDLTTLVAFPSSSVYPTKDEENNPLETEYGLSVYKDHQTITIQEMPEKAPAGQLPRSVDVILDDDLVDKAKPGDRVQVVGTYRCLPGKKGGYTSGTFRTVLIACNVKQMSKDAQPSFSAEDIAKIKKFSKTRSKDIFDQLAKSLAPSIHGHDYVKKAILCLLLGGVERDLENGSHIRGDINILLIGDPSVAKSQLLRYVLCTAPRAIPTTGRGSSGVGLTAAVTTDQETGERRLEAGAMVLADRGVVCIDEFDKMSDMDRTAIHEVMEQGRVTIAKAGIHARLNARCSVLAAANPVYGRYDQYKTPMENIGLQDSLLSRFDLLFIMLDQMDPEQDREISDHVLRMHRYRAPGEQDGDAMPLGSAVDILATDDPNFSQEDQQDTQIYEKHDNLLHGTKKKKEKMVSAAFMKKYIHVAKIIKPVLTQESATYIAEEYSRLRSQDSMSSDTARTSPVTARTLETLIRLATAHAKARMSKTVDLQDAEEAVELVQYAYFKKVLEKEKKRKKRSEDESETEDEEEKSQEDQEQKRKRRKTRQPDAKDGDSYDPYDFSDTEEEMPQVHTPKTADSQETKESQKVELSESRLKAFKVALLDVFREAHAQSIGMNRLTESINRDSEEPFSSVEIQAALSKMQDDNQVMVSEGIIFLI

B1: MCM-BP with no tags (natural protein, human, UniProt Q9BTE3 1-642, looked up)
chain: MPCGEDWLSHPLGIVQGFFAQNGVNPDWEKKVIEYFKEKLKENNAPKWVPSLNEVPLHYLKPNSFVKFRCMIQDMFDPEFYMGVYETVNQNTKAHVLHFGKYRDVAECGPQQELDLNSPRNTTLERQTFYCVPVPGESTWVKEAYVNANQARVSPSTSYTPSRHKRSYEDDDDMDLQPNKQKDQHAGARQAGSVGGLQWCGEPKRLETEASTGQQLNSLNLSSPFDLNFPLPGEKGPACLVKVYEDWDCFKVNDILELYGILSVDPVLSILNNDERDASALLDPMECTDTAEEQRVHSPPASLVPRIHVILAQKLQHINPLLPACLNKEESKTCKFVSSFMSELSPVRAELLGFLTHALLGDSLAAEYLILHLISTVYTRRDVLPLGKFTVNLSGCPRNSTFTEHLYRIIQHLVPASFRLQMTIENMNHLKFIPHKDYTANRLVSGLLQLPSNTSLVIDETLLEQGQLDTPGVHNVTALSNLITWQKVDYDFSYHQMEFPCNINVFITSEGRSLLPADCQIHLQPQLIPPNMEEYMNSLLSAVLPSVLNKFRIYLTLLRFLEYSISDEITKAVEDDFVEMRKNDPQSITADDLHQLLVVARCLSLSAGQTTLSRERWLRAKQLESLRRTRLQQQKCVNGNEL
notes: MCM-BP, human; made from pfastBacHT.MCM-BP by excising the 6-His tag; also called untagged MCM-BP; nontagged MCM-BP; source: High Five insect cells, baculovirus, co-expressed, in lysate
binding result [1]: binds | binding result [2]: binds | binding result [3]: binds

B2: His-tagged MCM-BP (natural protein, human, UniProt Q9BTE3 1-642, looked up)
chain: MPCGEDWLSHPLGIVQGFFAQNGVNPDWEKKVIEYFKEKLKENNAPKWVPSLNEVPLHYLKPNSFVKFRCMIQDMFDPEFYMGVYETVNQNTKAHVLHFGKYRDVAECGPQQELDLNSPRNTTLERQTFYCVPVPGESTWVKEAYVNANQARVSPSTSYTPSRHKRSYEDDDDMDLQPNKQKDQHAGARQAGSVGGLQWCGEPKRLETEASTGQQLNSLNLSSPFDLNFPLPGEKGPACLVKVYEDWDCFKVNDILELYGILSVDPVLSILNNDERDASALLDPMECTDTAEEQRVHSPPASLVPRIHVILAQKLQHINPLLPACLNKEESKTCKFVSSFMSELSPVRAELLGFLTHALLGDSLAAEYLILHLISTVYTRRDVLPLGKFTVNLSGCPRNSTFTEHLYRIIQHLVPASFRLQMTIENMNHLKFIPHKDYTANRLVSGLLQLPSNTSLVIDETLLEQGQLDTPGVHNVTALSNLITWQKVDYDFSYHQMEFPCNINVFITSEGRSLLPADCQIHLQPQLIPPNMEEYMNSLLSAVLPSVLNKFRIYLTLLRFLEYSISDEITKAVEDDFVEMRKNDPQSITADDLHQLLVVARCLSLSAGQTTLSRERWLRAKQLESLRRTRLQQQKCVNGNEL
notes: MCM-BP, human; pfastBacHT.MCM-BP; also called His-MCM-BP; His-BP; source: High Five insect cells, baculovirus; not shown: His6, N-terminal, kept
binding result (untagged MCM3): binds
